Positions count from the first letter of the chain named. Numbers in names are those of the source. Blank lines part the entries; values can stand above or below the binder they belong to.
Molecular target: G. gallus FANCD2 (G. gallus, UniProt Q68Y81 1-1439)
Experiment: cross-linking

Sequence of G. gallus FANCD2 (Q68Y81 whole entry): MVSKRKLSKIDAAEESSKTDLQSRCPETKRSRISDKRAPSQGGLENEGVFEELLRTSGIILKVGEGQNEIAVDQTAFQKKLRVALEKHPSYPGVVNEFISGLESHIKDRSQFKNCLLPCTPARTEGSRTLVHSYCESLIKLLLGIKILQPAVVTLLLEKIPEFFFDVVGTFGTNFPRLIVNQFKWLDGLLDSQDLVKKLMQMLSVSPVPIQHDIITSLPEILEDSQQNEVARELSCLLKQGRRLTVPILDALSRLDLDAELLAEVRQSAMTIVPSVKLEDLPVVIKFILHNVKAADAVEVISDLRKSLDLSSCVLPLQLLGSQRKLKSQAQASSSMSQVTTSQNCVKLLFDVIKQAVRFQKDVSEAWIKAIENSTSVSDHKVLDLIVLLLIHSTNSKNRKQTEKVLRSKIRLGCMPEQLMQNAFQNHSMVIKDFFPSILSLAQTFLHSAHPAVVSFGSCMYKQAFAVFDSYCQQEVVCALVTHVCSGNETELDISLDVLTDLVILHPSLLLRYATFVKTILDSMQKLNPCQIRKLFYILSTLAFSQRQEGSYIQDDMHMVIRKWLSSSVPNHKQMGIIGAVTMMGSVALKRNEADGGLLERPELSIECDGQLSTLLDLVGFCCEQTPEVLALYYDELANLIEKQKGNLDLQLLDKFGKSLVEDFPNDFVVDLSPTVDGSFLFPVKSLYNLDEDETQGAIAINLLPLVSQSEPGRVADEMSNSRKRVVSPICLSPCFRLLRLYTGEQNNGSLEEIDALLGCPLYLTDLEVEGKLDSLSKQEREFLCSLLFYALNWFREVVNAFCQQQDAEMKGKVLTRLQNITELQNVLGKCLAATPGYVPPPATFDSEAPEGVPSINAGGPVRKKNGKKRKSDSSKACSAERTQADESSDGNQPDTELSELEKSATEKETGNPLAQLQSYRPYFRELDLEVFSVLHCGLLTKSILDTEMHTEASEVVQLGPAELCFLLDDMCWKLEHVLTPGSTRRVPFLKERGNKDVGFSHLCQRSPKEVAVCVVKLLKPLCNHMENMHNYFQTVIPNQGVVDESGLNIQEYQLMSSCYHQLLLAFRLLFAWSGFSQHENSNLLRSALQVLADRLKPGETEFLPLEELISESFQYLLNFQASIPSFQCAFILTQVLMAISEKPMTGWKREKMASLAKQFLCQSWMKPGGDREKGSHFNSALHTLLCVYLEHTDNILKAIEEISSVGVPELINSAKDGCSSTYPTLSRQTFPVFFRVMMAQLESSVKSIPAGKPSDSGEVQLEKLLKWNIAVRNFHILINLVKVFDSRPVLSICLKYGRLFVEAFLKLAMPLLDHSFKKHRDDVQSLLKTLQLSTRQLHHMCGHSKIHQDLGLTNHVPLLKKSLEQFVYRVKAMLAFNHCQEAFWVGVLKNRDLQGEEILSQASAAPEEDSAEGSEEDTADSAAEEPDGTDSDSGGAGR

binding result: binds
B1: G. gallus FANCI, wild type (natural protein, UniProt B0I564 1-1338, looked up)
chain: MAQRILQLAAEGSPERLQEALQGLTEGELGDMVTRQALRGRETAALLKGIFKGSPCSQQSGVLRRLQVYKHCVSLVESGDLHVGKVSEIIGLLMLEARQLPGHALAELATLFVEVIKRGSLSNGKSLELFSTVLTALSNSKESLAYGKGELNGEEFKKQLINTLCSSKWDPQCVIHLANMFRDIPLSGEELQFVVEKVLRMFSKLDLQEIPPLVYQLLLLSAKGSKKTVLEGIISFFNQLDKRQKEEQRVPQSADLEVATVPLDQLRHVEGTVILHIVSAINLDQDIGEELIKHLKTEQQKDPGKALCPFSVSLLLSTAVKHRLQEQIFDFLKTSITRSCKDLQILQASKFLQDLCPQQYDVTAVILEVVKNSAFGWDHVTQGLVDLGFSLMESYEPKKSFGGKAAETNLGLSKMPAQQACKLGASILLETFKVHEPIRSDILEQVLNRVLTKAASPVSHFIDLLSNIVVSAPLVLQNSSSRVTETFDNLSFLPIDTVQGLLRAVQPLLKVSMSVRDSLILVLQKAIFSRQLDARKAAVAGFLLLLRNFKILGSLTSSQCSQAIGATQVQADVHACYNSAANEAFCLEILGSLRRCLSQQADVRLMLYEGFYDVLRRNSQLASSIMETLLSQIKQYYLPQQDLLPPLKLEGCIMAQGDQIFLQEPLAHLLCCIQHCLAWYKSTVHLCKGAEDEEEEEDVGFEQNFEEMLESVTRRMIKSELEDFELDKSADFSPSSGVGVKNNIYAIQVMGICEVLIEYNFKIGNFSKNKFEDVLGLFTCYNKLSEILKEKAGKNKSTLGNRIARSFLSMGFVSTLLTALFRDNAQSHEESLAVLRSSTEFMRYAVSVALQKVQQLEEMGQTDGPDGQNPEKMFQNLCKITRVLLWRYTSIPTAVEESGKKKGKSISLLCLEGLLRIFNTMQQLYAARIPQFLQALDITDGDAEEADINVTEKAAFQIRQFQRSLVNQLSSAEDDFNSKETQLLITILSTLSKLLDPGSQQFLQFLTWTVKICKENALEDLSCCKGLLTLLFSLHVLYKSPVSLLRELAQDIHACLGDIDQDVEIESRSHFAIVNVKTAAPTVCLLVLGQADKVLEEVDWLIKRLTILGSDTSEDSTQASNQTQALEKGVILQLGTLLTVFHELVQTALPAGSCVDSLLRSLSKTYAILTSLIKHYIQACRSTSNTVPGRLEKLVKLSGSHLTPQCYSFITYVQNIHSESLSFAEEKKKKKKEDETAVVSTVMAKVLRDTKPIPNLIFAIEQYEKFLIHLSKKSKVNLMQYMKLSTSRDFRINASMLDSVLQEQNTEDAENEPDNNQSGTAEQPDENQEPQKKRRRKK

binding result: binds
B2: G. gallus FANCI, phosphomimetic S558D, S561D, T567D (natural protein, UniProt B0I564 1-1338, looked up)
chain: B1 chain with S558D, S561D, T567D
